From patent US20260028421A1 (JIANGSU HENGRUI PHARMACEUTICALS, published 2026)
Residue numbers refer to the chain shown, from its start.

B1: 81 L3H2 (antibody, human IgG1, kappa, V domains shown)
VH: EVQLVQSGAEVKKPGASVKVSCKASGYTFTDHNMNWVKQAPGQRLEWMGVMNPKFGTINYNQKFKDKATITRDTSASTAYMELSSLRSEDTAVYYCARDDYPNYFDYWGQGTTVTVSS
VL: DIQLTQSPSFLSASPGDRVTITCSASSSVNYMYWYQQKPGSSPKSWIYRTSNLASGVPSRFSGSGSGTEYTLTISSLQPEDFATYYCQQYHDYPPTFGGGTKVEIKR
notes: h81 H2 + h81 L3
B2: 81 L4H2 (antibody, human IgG1, kappa, V domains shown)
VH: B1 VH
VL: B1 VL with L53D
notes: h81 H2 + h81 L4
B3: 81 L6H2 (antibody, human IgG1, kappa, V domains shown)
VH: B1 VH
VL: B1 VL with S51Q
notes: h81 H2 + h81 L6
B4: P3-C7 L2H1 (antibody, human IgG1, kappa, V domains shown)
VH: EVQLVQSGAEVKKPGASVKVSCKASGYTFTDHYIHWVRQAPGQGLEWMGVINPYNDGATYNQKFKGRVTMTVDKSTSTVYMELSSLRSEDTAVYYCARPPRAYGNYAGYWGQGTTVTVSS
VL: DVVMTQTPLSLPVTPGEPASISCRSSQSLVHSNGNTYLHWYLQKPGQSPQLLIYKVSNRFSGVPDRFSGSGSRTDFTLKISRVEAEDVGVYYCSQSTHVPYTFGGGTKVEIKR
notes: hP3-C7 H1 + L2
B5: P3-C7 L1H1 (antibody, human IgG1, kappa, V domains shown)
VH: B4 VH
VL: B4 VL with V2I, R73G
notes: hP3-C7 H1 + L1
B6: P3-C7 L3H1 (antibody, human IgG1, kappa, V domains shown)
VH: B4 VH
VL: B4 VL with N33Q
notes: hP3-C7 H1 + L3
B7: P3-C7 L4H1 (antibody, human IgG1, kappa, V domains shown)
VH: B4 VH
VL: B4 VL with N33S
notes: hP3-C7 H1 + L4
B8: P3-C7 L5H1 (antibody, human IgG1, kappa, V domains shown)
VH: B4 VH
VL: B4 VL with N33T
notes: hP3-C7 H1 + L5
B9: 81 L2H2 (antibody, human IgG1, kappa, V domains shown)
VH: B1 VH
VL: EIVLTQSPDFQSVTPGEKVTITCSASSSVNYMYWYQQKPDQSPKSWIYRTSNLASGVPSRFSGSGSGTDFTLTISSLEAEDAATYYCQQYHDYPPTFGGGTKVEIKR
notes: h81 H2 + h81 L2
B10: M81 CHI (antibody, human IgG1, kappa, V domains shown)
VH: EFQLQQSGPELVKPGASVKISCKASGYSFTDHNMNWVKQSNGKSLEWIGVMNPKFGTINYNQKFKDKATLTVDQSSSTAYMQLNSLTSEDSAVYYCVRDDYPNYFDYWGQGTTLTVSS
VL: QIVLTQSPAIMSASPGEKVTISCSASSSVNYMYWYQQKPGSSPKSWIYRTSNLASGVSARFSGSGSGTSYSLTISSMEAEDAATYYCQQYHDYPPTFGGGTKLEIKR
notes: chimeric, murine variable regions on human IgG1/kappa; also called M81CH1
B11: M146 CHI (antibody, human IgG1, kappa, V domains shown)
VH: EFQLQQSGPELVKPGASVKISCKASGYSFTDYNMNWVKQSNGKSLEWIGLINPKYGTTNYNQKFKGKATLTVDQSSSTAYMQLNSLTSEDSAVYYCAIDDYPAWFAYWGQGTLVTVSA
VL: B10 VL with V29L, S58P, D92S, G99A, I105L
notes: chimeric
B12: P3-C7 CHI (antibody, human IgG1, kappa, V domains shown)
VH: EVQLQQSGPVLLKPGASVKMSCKASGYTFTDHYIHWVKLSHGKSLEWIGVINPYNDGATYNQKFKGKATLTVDKSSSTAYMELNSLTSEDSAVYYCARPPRAYGNYAGYWGQGTTLTVSS
VL: B4 VL with T14S, P15L, E17D, P18Q, Q50K, S68I, V88L, Y92F, K108R, V109L
notes: chimeric; also called P3-C7 CH1
B13: M64 CHI (antibody, human IgG1, kappa, V domains shown)
VH: EVQLVESGGGLVKPGGSLKLSCAASGFTFSDYGMHWVRQAPEKGLEWVAYISSGSSTIYYADTVKGRFTISRDNAKNTLFLQMTSLRSEDTAMYYCARTRVYFYGSYWYFDVWGTGTTVTVSS
VL: QIVLTQSPAIMSASPGEKVTMTCSASSSVSYMYWYQQKSGTSPKRWIYDTSKLASGVPARFSGSGSGTSYSLTISSLEAEDAATYYCQQWSSDPPYTFGGGTKLEIKR
notes: chimeric
B14: P1-C6 CHI (antibody, human IgG1, kappa, V domains shown)
VH: QVQLQQSGAELARPGASVKLSCKASGYTFTSYGITWVKRRTGQGLGWIGEIYPRSGNTYYNEKFKGKATLTADKSSSTAYMELRSLTSEDSAVYFCARAITTVVGDWYFDVWGTGTTVTVSS
VL: DIVLTQSPASLAMSLGKRATISCRASESVSLIGTNLIHWYQQKPGQPPKLLIHHASNLEAGVPARFSGSGSRTDFTLTIDPVEEDDVAIYYCLQSRKIRTFGGGTKLEIKR
notes: chimeric
B15: P2-C8 CHI (antibody, human IgG1, kappa, V domains shown)
VH: B12 VH with L12V, A24V, H32Y, I34M, L39Q, V50L, D56G, G57V, A58T, T59S
VL: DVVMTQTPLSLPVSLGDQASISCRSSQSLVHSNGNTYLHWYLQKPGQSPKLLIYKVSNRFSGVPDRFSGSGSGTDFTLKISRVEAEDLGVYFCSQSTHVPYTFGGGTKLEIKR
notes: chimeric
B16: P3-D2 CHI (antibody, human IgG1, kappa, V domains shown)
VH: B12 VH with L12V, H32Y, Y33F, I34M, L39Q, V50L, N55S, D56G, A58T, N105D
VL: DVVMTQTPLSLPVSLGDQASISCRSSQSLVHSNGNTYLHWYLQKPGQSPKLLIYKVSNRFSGVPDRFSGSGSGTDFTLKISRVEAEDLGVYFCSQSTHVPLTFGTGTKLEIKR
notes: chimeric
B17: P2-B9 CHI (antibody, human IgG1, kappa, V domains shown)
VH: QVQLQQPGAELVKPGASVKLSCKASGYTFSSYWMHWVKQRPGQGLEWIGMIHPKSDSVNNNEKFKNKATLTVDKSSSTVYLQLSSLTSEDSAVYSCARGGDSGYSMDYWGQGTSVTVSS
VL: DIVLTQSPASLAVSLGQKATISCKASKKVTIFGSISALHWYQQKPGQPPKLIYNGAKLESGVSARFSDSGSQNRSPFGNQLSFTLTIDPVEADDAATYYCLQNKEVPYTFGGGTKLEIKR
notes: chimeric
B18: P3-E4 CHI (antibody, human IgG1, kappa, V domains shown)
VH: QVQLQQPGAELVMPGAAVKLSCKASGYTFINYWMHWLKQRPGQGLEWIGEIDPSDGYTDYNQKFKGKATLTVDKSSSTAYMQLSSLTSEDSAVYYCAISLRGPITFGPFPYWGQGTLVTVSS
VL: DIVLTQSPASLAVSLGQRATISCRASESVSIHGTHLMHWYQQKPGQPPKLLIYAASNLESGVPARFSGSGSETDFTLNIHPVAEEDAATYFCQHSIEDPRTFGGGTKLEIKR
notes: chimeric
B19: PL-4 (bispecific antibody)
chain 1: not shown
chain 2: DIVLTQSPASLAVSPGQRATITCRASESVSIHGTHLMHWYQQKPGQPPKLLIYAASKLESGVPARFSGSGSGTDFTLTINPVEAEDTANYYCQQSFEDPLTFGQGTKLEIKGGGGSGIPPKIECLPIDISIDEGKVLTVASCFTGEPTPEVTWSTGGRKIHSQEQGRFHIENTDDSTTLTIKDVQKQDGGLYTLTLRNEFGSDSATVNIHIRSI
chain 3: not shown
chain 4: not shown
B20: PL-5 (bispecific antibody)
chain 1: not shown
chain 2: B19 chain 2 with C142A
chain 3: not shown
chain 4: not shown
B21: PL-7 (bispecific antibody)
chain 1: not shown
chain 2: B19 chain 2
chain 3: not shown
chain 4: not shown
B22: PL-9 (bispecific antibody)
chain 1: not shown
chain 2: B19 chain 2 with V136C, C142A
chain 3: not shown
chain 4: not shown
B23: PL-10 (bispecific antibody)
chain 1: not shown
chain 2: B19 chain 2
chain 3: not shown
chain 4: not shown
B24: PL-11 (bispecific antibody)
chain 1: not shown
chain 2: B19 chain 2 with G112R, G113T, G114V, G115A, C142A
chain 3: not shown
chain 4: not shown
B25: PL-12 (bispecific antibody)
chain 1: not shown
chain 2: B19 chain 2 with G112R, G113T, G114V, G115A, V136C, C142A
chain 3: not shown
chain 4: not shown
B26: PL-13 (bispecific antibody)
chain 1: not shown
chain 2: B19 chain 2 with G112R, G113T, G114V, G115A
chain 3: not shown
chain 4: not shown
B27: PL-14 (bispecific antibody)
chain 1: not shown
chain 2: B19 chain 2 with G112R, G113T, G114V, G115A, C142A
chain 3: not shown
chain 4: not shown
B28: PL-15 (bispecific antibody)
chain 1: not shown
chain 2: B19 chain 2 with G112R, G113T, G114V, G115A, V136C, C142A
chain 3: not shown
chain 4: not shown
B29: PL-17 (bispecific antibody)
chain 1: not shown
chain 2: B19 chain 2 with G112R, G113T, G114V, G115A, C142A
chain 3: not shown
chain 4: not shown

Key:
hGUCY2C ECD-His = target: T1, hGUCY2C ECD-His (human, UniProt P25092 24-430); experiment: SPR Biacore, antibody captured
T1 construct: also called human GUCY2C protein
Description: To test the affinity of the GUCY2C monoclonal antibodies of the present disclosure for GUCY2C, in this test example, the instruments Biacore 8K and Biacore T200 were used to detect the ability of the antibodies to bind to hGUCY2C-ECD-His (SEQ ID NO: 3). The specific method is as follows: The antibody was affinity-captured using a Protein A biosensor chip conjugated with an anti-human antibody, then a solution containing GUCY2C Protein flowed on the surface of the chip, and reaction signals were detected in real time with an instrument to obtain association and dissociation curves. After dissociation was completed for each cycle, the biosensor chip was washed with 10 mM glycine-hydrochloric acid (pH 1.5) for regeneration. Data fitting was performed using a 1:1 model.

hCTLA4 = hCTLA4 (human, UniProt P16410 36-161); experiment: ELISA
hPDL1 = hPDL1 (human, UniProt Q9NZQ7 19-238); experiment: ELISA
hPDL1, sequence (Q9NZQ7 19-238 limits assumed): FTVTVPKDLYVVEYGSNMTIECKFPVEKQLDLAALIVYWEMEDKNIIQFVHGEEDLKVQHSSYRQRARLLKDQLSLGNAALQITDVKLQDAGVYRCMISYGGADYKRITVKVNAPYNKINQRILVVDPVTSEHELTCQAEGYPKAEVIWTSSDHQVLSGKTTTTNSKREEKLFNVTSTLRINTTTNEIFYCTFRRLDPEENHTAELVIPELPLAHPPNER

hCTLA4, sequence (P16410 36-161 limits assumed): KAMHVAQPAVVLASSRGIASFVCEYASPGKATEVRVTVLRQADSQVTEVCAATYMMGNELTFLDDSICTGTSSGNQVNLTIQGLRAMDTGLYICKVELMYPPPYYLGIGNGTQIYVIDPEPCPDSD

Binder	Kd (hGUCY2C ECD-His)	koff (hGUCY2C ECD-His)	kon (hGUCY2C ECD-His)	EC50 (hCTLA4)	EC50 (hPDL1)
B1	0.41 nM	0.000103 s⁻¹	251000 M⁻¹ s⁻¹	–	–
B2	0.98 nM	0.000207 s⁻¹	212000 M⁻¹ s⁻¹	–	–
B3	0.47 nM	0.000114 s⁻¹	241000 M⁻¹ s⁻¹	–	–
B4	5.35 nM	0.000166 s⁻¹	31000 M⁻¹ s⁻¹	–	–
B5	6.55 nM	0.000156 s⁻¹	23700 M⁻¹ s⁻¹	–	–
B6	47.5 nM	0.00135 s⁻¹	28400 M⁻¹ s⁻¹	–	–
B7	73.4 nM	0.00209 s⁻¹	28500 M⁻¹ s⁻¹	–	–
B8	26.7 nM	0.000719 s⁻¹	26900 M⁻¹ s⁻¹	–	–
B9	0.46 nM	0.000127 s⁻¹	274000 M⁻¹ s⁻¹	–	–
B10	0.27 nM	5.9e-05 s⁻¹	216000 M⁻¹ s⁻¹	–	–
B11	0.46 nM	9.22e-05 s⁻¹	203000 M⁻¹ s⁻¹	–	–
B12	6.61 nM	0.000149 s⁻¹	22600 M⁻¹ s⁻¹	–	–
B13	20.4 nM	0.000348 s⁻¹	17100 M⁻¹ s⁻¹	–	–
B14	2.57 nM	0.000181 s⁻¹	70700 M⁻¹ s⁻¹	–	–
B15	5.12 nM	0.000178 s⁻¹	34900 M⁻¹ s⁻¹	–	–
B16	4.5 nM	0.000173 s⁻¹	38600 M⁻¹ s⁻¹	–	–
B17	3.02 nM	0.000175 s⁻¹	58100 M⁻¹ s⁻¹	–	–
B18	12.9 nM	0.000228 s⁻¹	17700 M⁻¹ s⁻¹	–	–
B19	–	–	–	6.5 nM	0.7 nM
B20	–	–	–	6.7 nM	0.7 nM
B21	–	–	–	7.3 nM	0.5 nM
B22	–	–	–	5.5 nM	0.6 nM
B23	–	–	–	6.9 nM	0.6 nM
B24	–	–	–	5.6 nM	0.6 nM
B25	–	–	–	8 nM	0.5 nM
B26	–	–	–	4.4 nM	0.5 nM
B27	–	–	–	6 nM	1.3 nM
B28	–	–	–	3.2 nM	1.4 nM
B29	–	–	–	6.2 nM	1.4 nM
